Some results are limits rather than exact numbers.

For test [1], the target named is HLA-B*51:01. Put plainly: IEDB peptide-MHC binding, purified MHC/competitive/fluorescence; filed as Kd, often an IC50 or EC50 that approximates it; ≥ and ≤ were set here for values at or beyond the usual limits of such assays.
Test [2] addresses HLA-A*29:02. Described as above. Particulars: source organism: Homo sapiens.
The target of test [3] is HLA-A*02:50. The description is as above. Conditions: source organism: Homo sapiens.
Test [4] addresses HLA-A*25:01. Described as above. Particulars: source organism: Homo sapiens.
For test [5], the target named is HLA-A*24:03. The description is as above. Conditions: source organism: Homo sapiens.
For test [6], the target named is HLA-B*44:02. The test is described as above. Particulars: source organism: Homo sapiens.
Test [7] addresses HLA-B*57:01. The test is described as above. Conditions: source organism: Homo sapiens.
Test [8] deals with HLA-A*30:01. The test is described as above. Particulars: source organism: Homo sapiens.
Test [9] has as its target HLA-B*40:01. Put plainly: IEDB peptide-MHC binding, purified MHC/direct/fluorescence; filed as Kd, often an IC50 or EC50 that approximates it; ≥ and ≤ were set here for values at or beyond the usual limits of such assays.
The target in test [10] is HLA-A*02:01. Described as above. Particulars: source organism: Homo sapiens.
Test [11] addresses HLA-B*15:01. Described as above.
The target of test [12] is HLA-B*07:02. The test is described as above.
For test [13], the target named is HLA-A*69:01. Described as above.
In test [14] the target is HLA-B*53:01. Nature of the test: IEDB peptide-MHC binding, purified MHC/competitive/fluorescence; ≥ and ≤ were set here for values at or beyond the usual limits of such assays. Particulars: source organism: Ornithorhynchus anatinus.
In test [15] the target is HLA-B*15:42. Nature of the test: IEDB peptide-MHC binding, purified MHC/competitive/fluorescence; filed as Kd, often an IC50 or EC50 that approximates it; ≥ and ≤ were set here for values at or beyond the usual limits of such assays. Particulars: source organism: Burkholderia mallei SAVP1.
Test [16] concerns the target HLA-B*45:06. Described as above. Particulars: source organism: Burkholderia mallei SAVP1.
In test [17] the target is HLA-B*83:01. The description is as above. Particulars: source organism: Burkholderia mallei SAVP1.
Test [18] concerns the target HLA-B*27:20. The test is described as above. Particulars: source organism: Burkholderia mallei SAVP1.
The target in test [19] is HLA-C*05:01. Nature of the test: IEDB peptide-MHC binding, purified MHC/direct/fluorescence; filed as Kd, often an IC50 or EC50 that approximates it; ≥ and ≤ were set here for values at or beyond the usual limits of such assays. Conditions: source organism: Burkholderia mallei SAVP1.
Test [20] addresses HLA-C*06:02. The test is described as above. Conditions: source organism: Burkholderia mallei SAVP1.
The target of test [21] is HLA-C*15:02. The description is as above. Conditions: source organism: Burkholderia mallei SAVP1.
Test [22] addresses HLA-C*07:02. Described as above. Particulars: source organism: Burkholderia mallei SAVP1.
Test [23] addresses HLA-C*14:02. The description is as above. Particulars: source organism: Burkholderia mallei SAVP1.
Test [24] has as its target HLA-B*08:01. The description is as above. Particulars: source organism: Burkholderia mallei ATCC 23344.
Test [25] concerns the target HLA-B*08:02. Described as above. Particulars: source organism: Burkholderia mallei ATCC 23344.
The target in test [26] is HLA-A*11:01. Nature of the test: IEDB peptide-MHC binding, purified MHC/competitive/fluorescence; filed as Kd, often an IC50 or EC50 that approximates it; ≥ and ≤ were set here for values at or beyond the usual limits of such assays. Particulars: source organism: Orthomarburgvirus marburgense.
Test [27] has as its target HLA-A*02:01. The test is described as above. Conditions: source organism: Orthomarburgvirus marburgense.
In test [28] the target is HLA-B*39:01. Described as above. Particulars: source organism: Orthomarburgvirus marburgense.
The target in test [29] is HLA-B*15:17. Put plainly: IEDB peptide-MHC binding, purified MHC/direct/fluorescence; filed as Kd, often an IC50 or EC50 that approximates it; ≥ and ≤ were set here for values at or beyond the usual limits of such assays. Particulars: source organism: Marburg virus - Musoke, Kenya, 1980.
The target in test [30] is HLA-A*01:01. The test is described as above. Conditions: source organism: Marburg virus - Musoke, Kenya, 1980.
Test [31] deals with HLA-A*31:01. The test is described as above. Conditions: source organism: Marburg virus - Musoke, Kenya, 1980.
Test [32] addresses HLA-B*18:01. Described as above. Conditions: source organism: Marburg virus - Musoke, Kenya, 1980.
Test [33] deals with HLA-B*58:01. Described as above. Particulars: source organism: Marburg virus - Musoke, Kenya, 1980.
In test [34] the target is HLA-B*27:05. The description is as above. Conditions: source organism: Marburg virus - Musoke, Kenya, 1980.
For test [35], the target named is HLA-B*48:01. Described as above. Particulars: source organism: Marburg virus - Musoke, Kenya, 1980.
The target in test [36] is HLA-A*03:01. The description is as above. Conditions: source organism: Marburg virus - Musoke, Kenya, 1980.
The target in test [37] is HLA-B*46:01. The description is as above. Conditions: source organism: Marburg virus - Musoke, Kenya, 1980.
Test [38] addresses HLA-A*26:01. The test is described as above. Particulars: source organism: Ravn virus - Ravn, Kenya, 1987.
For test [39], the target named is HLA-B*57:01. The test is described as above. Particulars: source organism: Marburg virus - Musoke, Kenya, 1980.
Test [40] deals with HLA-A*30:01. The description is as above. Conditions: source organism: Ravn virus - Ravn, Kenya, 1987.
In test [41] the target is HLA-B*38:01. The test is described as above. Particulars: source organism: Ravn virus - Ravn, Kenya, 1987.
Test [42] has as its target HLA-B*15:02. Nature of the test: IEDB peptide-MHC binding, purified MHC/competitive/fluorescence; filed as Kd, often an IC50 or EC50 that approximates it; ≥ and ≤ were set here for values at or beyond the usual limits of such assays. Particulars: source organism: Toxoplasma gondii RH.
In test [43] the target is HLA-B*58:01. Put plainly: IEDB peptide-MHC binding, purified MHC/competitive/fluorescence; ≥ and ≤ were set here for values at or beyond the usual limits of such assays. Conditions: source organism: Homo sapiens.
[44] abbreviates: source organism: Marburg virus - Musoke, Kenya, 1980.

For EVIPYTPAM, the Kd is at least 20 µM in test [1] (source organism: Homo sapiens); at least 20 µM in test [2]; at least 20 µM in test [3]; 0.0108 µM in [4]; at least 20 µM in [5]; at least 20 µM in test [6]. The dissociation constant (Kd) is at least 20 µM in [7]; at least 20 µM in test [8]; 13.2 µM in test [9] (source organism: Homo sapiens); 5.7 µM in [10]; 4.76 µM in [11] (source organism: Homo sapiens); 4.71 µM in [12] (source organism: Homo sapiens). Moreover, the equilibrium dissociation constant (Kd) in test [13] (source organism: Homo sapiens) was 0.00717 µM.
YSLEYFQF: the half-maximal inhibitory concentration (IC50) in test [14] stood at 4.79 µM.
For YARRYFYPL, the equilibrium dissociation constant (Kd) in test [15] was at least 5 µM; in test [16], at least 5 µM; in test [17], at least 5 µM; in test [18] it was 0.0244 µM; in [19] it was at least 20 µM; in test [20], at least 20 µM. Further, the Kd in test [21] amounted to 0.011 µM; in test [22], 0.362 µM; in test [23], 0.696 µM; in test [24], 0.002 µM; in test [25], 0.043 µM.
In the case of VPAWLPLGI, the dissociation constant (Kd) in test [1] (source organism: Orthomarburgvirus marburgense) is 0.116 µM; in [26] it was at least 20 µM; in [27], 1.05 µM; in [28] it was 2.68 µM; in test [29] it was 0.288 µM; in test [9] (setting [44]) it was at least 20 µM. Further, the dissociation constant Kd is at least 20 µM in [30]; at least 20 µM in test [31]; 5.81 µM in test [32]; at least 20 µM in [33]; at least 20 µM in [34]; at least 20 µM in test [35]. In addition, the Kd is at least 20 µM in [36]; at least 20 µM in [11] (setting [44]); 0.732 µM in test [12] (setting [44]); at least 20 µM in [37]; at least 20 µM in [38]; 0.0111 µM in [13] (setting [44]). The equilibrium dissociation constant (Kd) in test [39], in [40] and in test [41] was at least 20 µM each time.
SLSSPDSAY: in test [42], the Kd is 0.0251 µM.
Regarding KSLTTTMQF, the IC50 in test [43] was 0.136 µM.

Values taken from the Immune Epitope Database (IEDB).
